From patent US6897295 (MOCHIDA PHARMACEUTICAL, dated 2005)
Each block holds one binder with its values, some of them ahead of it.

Tests used:
[1] = target: T1, rat Fas ligand (encoded by clone pTN24-15) (rat, UniProt P36940 1-278); test: flow cytometry on d10S cells, phycoerythrin-labeled streptoavidin
T1 construct: Full-length type II membrane protein of 278 residues; It stood on d10S cells and on COS-7 cells transfected with pTN24-15; It was also used as NP-40 lysate of these cells (immunoprecipitation) and as protein purified from the d10S-12 membrane fraction (about 40 kD); also called Fas ligand on the d10S cells; COS/pTN24-15
T1 sequence: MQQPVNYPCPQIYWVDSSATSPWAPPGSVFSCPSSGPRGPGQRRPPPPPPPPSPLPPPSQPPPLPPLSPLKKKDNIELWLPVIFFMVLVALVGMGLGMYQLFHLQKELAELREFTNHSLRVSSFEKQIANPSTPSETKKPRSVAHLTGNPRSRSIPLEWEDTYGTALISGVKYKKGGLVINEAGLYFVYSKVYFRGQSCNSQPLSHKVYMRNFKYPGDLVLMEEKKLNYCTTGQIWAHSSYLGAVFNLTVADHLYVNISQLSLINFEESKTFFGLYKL
Description: PC60-d10S cells (to be referred to as "d10S" hereinafter; Rouvier E. et al., J. Exp. Med., vol. 177, pp. 195–200, 1993) were washed with a staining solution (phosphate-buffered saline (to be referred to as "PBS" hereinafter) containing 2% FCS and 0.02% NaN₃). About 1 ×10^6 of the cells were suspended in 50 μl of the staining solution supplemented with 5 μg/ml of rat anti-mouse FcγRII blocking antibody (Pharmingen). This suspension was dispensed into wells of a 96 well plate and incubated for 10 minutes on an ice bath. A 20 μg/ml solution of the biotinylated mFas-Fc was dispensed into wells of the resulting plate in 50 μl portions, and the incubation was continued for additional 30 minutes on an ice bath. […]
After washing the cells with the staining solution, cytometric analysis was carried out using FACScan (Becton Dickinson). As the result, a slight shift in the fluorescence intensity was observed which confirmed that said cells were stained with the biotinylated mFas-Fc (see FIG. 1(A). Control was expressed as an open area, and staining before 4 hours of treatment with PMA and ionomycin as a stippled area and staining after 4 hours of treatment with PMA and ionomycin as a closed area.

[2] = target: T2, mouse Fas antigen on W4 cells (mouse, UniProt P25446 22-327); test: concluded from cytotoxicity on W4 cells and its inhibition by mFas-Fc
T2 construct: whole, on cells; also called Fas antigen-expressing W4 cells
T2 sequence (looked up): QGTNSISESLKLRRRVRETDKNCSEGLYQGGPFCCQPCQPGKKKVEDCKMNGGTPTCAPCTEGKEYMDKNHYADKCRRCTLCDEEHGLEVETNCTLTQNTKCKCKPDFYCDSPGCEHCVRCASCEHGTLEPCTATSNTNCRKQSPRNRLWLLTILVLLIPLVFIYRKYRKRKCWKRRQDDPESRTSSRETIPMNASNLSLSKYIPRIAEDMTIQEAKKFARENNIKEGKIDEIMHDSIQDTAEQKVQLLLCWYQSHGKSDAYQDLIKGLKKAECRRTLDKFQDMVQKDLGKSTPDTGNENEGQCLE
Description: Cytotoxic activity of recombinant cells was measured in the same manner as described in Inventive Example 8, using the transformed COS cells (COS/pEF-MFLW4F) obtained in the above step (2) as the effector cells and 10^6 cells-of WR19L or W4 as the target cells. The W4 is a transformant which acquired mouse Fas antigen-expressing ability through the transformation of mouse WR19L cells. That is, 10^6 cells of WR19L or W4 were labeled with ^51Cr by culturing the cells at 37° C. for 2 hours in RPMI 1640 medium containing 20 μCi of (^51Cr) sodium chromate (Amersham).
The thus ^51Cr-labeled cells (1×10^4) were mixed with COS/pEF-MFLW4F cells at various mixing ratios and cultured at 37° C. for 4 hours, subsequently measuring cytotoxic activity using released ^51Cr as an index. […] In addition, the cytotoxicity of COS/pEF-MFLW4F cells was inhibited by the addition of 20 μg/ml of the chimera protein containing the extracellular domain of mouse Fas antigen (mFas-Fc) prepared in Inventive Example 1, but was not inhibited by the addition of the soluble type human TNF receptor (hTNFRβ-Fc).

[3] = target: T3, human Fas antigen on WC8A / WC8 cells (human, UniProt P25445 26-335); test: concluded from cytotoxicity on WC8A cells and its inhibition by hFas-Fc and mFas-Fc
T3 construct: whole, on cells
T3 sequence (looked up): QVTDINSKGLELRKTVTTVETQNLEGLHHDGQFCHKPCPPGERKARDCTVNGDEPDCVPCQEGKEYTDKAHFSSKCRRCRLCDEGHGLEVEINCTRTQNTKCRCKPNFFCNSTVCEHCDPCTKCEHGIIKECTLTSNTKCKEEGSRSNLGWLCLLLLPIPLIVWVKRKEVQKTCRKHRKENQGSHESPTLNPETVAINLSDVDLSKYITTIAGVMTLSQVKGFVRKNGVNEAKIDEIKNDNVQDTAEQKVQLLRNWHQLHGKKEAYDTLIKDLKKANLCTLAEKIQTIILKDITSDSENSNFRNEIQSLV
Description: Cytotoxic activity of recombinant cells was measured in the same manner as described in Inventive Example 8, using the COS-7 cells transformed in the above step (2) as the effector cells and 10^6 cells of WR19L or WC8A as the target cells. The WC8A is a transformant which acquired human Fas antigen-expressing ability through the transformation of mouse WR19L cells (Itoh N. et al., *J. Immunol.*, vol. 151, pp. 621–627, 1993).
The thus ^51Cr-labeled cells (1 ×10^4) were mixed with COS/pEX-hFL1 cells at various mixing ratios and cultured at 37° C. for 4 hours, subsequently measuring cytotoxic activity using released ^51Cr as an index.

[4] = target: T3, human Fas antigen on WC8A / WC8 cells; test: concluded from cytotoxicity of the culture supernatant on cells expressing human Fas antigen

binding result [1]: binds
B1: chimera protein of the extracellular domain of mouse Fas (mFas) antigen and the Fc region of human IgG1 (hIgG1) (Fc fusion, UniProt P25446 22-169, looked up)
chain: QGTNSISESLKLRRRVRETDKNCSEGLYQGGPFCCQPCQPGKKKVEDCKMNGGTPTCAPCTEGKEYMDKNHYADKCRRCTLCDEEHGLEVETNCTLTQNTKCKCKPDFYCDSPGCEHCVRCASCEHGTLEPCTATSNTNCRKQSPRNR
modifications: biotinylated with NHS-LC-biotin in the flow cytometry; unlabelled in the other assays
notes: extracellular domain; Made from plasmid pFas-FcII in COS-7 or BTS-1 cells; also called mFas-Fc; biotinylated mFas-Fc; not shown: human IgG1 heavy chain constant region: hinge, CH2 and CH3 domains

B2: mouse Fas ligand (encoded by pEF-MFLW4) (ligand)
chain: MQQPMNYPCPQIFWVDSSATSSWAPPGSVFPCPSCGPRGPDQRRPPPPPPPVSPLPPPSQPLPLPPLTPLKKKDHNTNLWLPVVFFMVLVALVGMGLGMYQLFHLQKELAELREFTNQSLKVSSFEKQIANPSTPSEKKEPRSVAHLTGNPHSRSIPLEWEDTYGTALISGVKYKKGGLVINETGLYFVYSKVYFRGQSCNNQPLNHKVYMRNSKYPEDLVLMEEKRLNYCTTGQIWAHSSYLGAVFNLTSADHLYVNISQLSLINFEESKTFFGLYKL
notes: Full-length protein of 279 residues on transfected COS cells; In the western blots it stood as reduced SDS extract of these cells; also called COS/pEF-MFLW4F
binding result [2]: binds

B3: human Fas ligand (encoded by pEX-hFL1) (ligand)
chain: MQQPFNYPYPQIYWVDSSASSPWAPPGTVLPCPTSVPRRPGQRRPPPPPPPPPLPPPPPPPPLPPLPLPPLKKRGNHSTGLCLLVMFFMVLVALVGLGLGMFQLFHLQKELAELRESTSQMHTASSLEKQIGHPSPPPEKKELRKVAHLTGKSNSRSMPLEWEDTYGIVLLSGVKYKKGGLVINETGLYFVYSKVYFRGQSCNNLPLSHKVYMRNSKYPQDLVMMEGKMMSYCTTGQMWARSSYLGAVFNLTSADHLYVNVSELSLVNFEESQTFFGLYKL
notes: Full-length protein on COS-7 cells (COS/pEX-hFL1) or FDC-P1 cells (FLh1); In the western blots it stood as reduced SDS extract of the transfected COS cells; also called COS/pEX-hFL1; human Fas ligand-expressing COS cells
binding result [3]: binds

binding result [1]: no binding
B4: chimera protein of TNF receptor beta and Fc region of human IgG1 (Fc fusion, UniProt P19438 30-211, looked up)
chain: LVPHLGDREKRDSVCPQGKYIHPQNNSICCTKCHKGTYLYNDCPGPGQDTDCRECESGSFTASENHLRHCLSCSKCRKEMGQVEISSCTVDRDTVCGCRKNQYRHYWSENLFQCFNCSLCLNGTVHLSCQEKQNTVCTCHAGFFLRENECVSCSNCKKSLECTKLCLPQIENVKGTEDSGTT
modifications: biotinylated with NHS-LC-biotin in the flow cytometry; unlabelled in the cytotoxicity assays
notes: extracellular domain; Control fusion protein; also called hTNFRβ-Fc; soluble type human TNF receptor; not shown: human IgG1 Fc region (hinge, CH2, CH3, as in pFas-FcII)

B5: extracellular domain of the human Fas ligand secreted by transformant COS-1/pM1070 (ligand)
chain: QLFHLQKELAELRESTSQMHTASSLEKQIGHPSPPPEKKELRKVAHLTGKSNSRSMPLEWEDTYGIVLLSGVKYKKGGLVINETGLYFVYSKVYFRGQSCNNLPLSHKVYMRNSKYPQDLVMMEGKMMSYCTTGQMWARSSYLGAVFNLTSADHLYVNVSELSLVNFEESQTFFGLYKL
notes: Expressed behind the signal peptide of the human Fas antigen, which is not counted here; Tested as culture supernatant; also called culture supernatant of COS-1/pM1070
binding result [4]: binds
